Where two headings read alike, the source gives them in different places. Each block holds one binder with its values, some of them ahead of it.
Tests used:
[1] = target: FcγRI (CD64) (human, UniProt P12314 16-288); experiment: SPR, response as % of Rmax (maximum FcγR capacity), Example 10; set-up and concentrations not given
[2] = target: T1, FcγRIIA (CD32a-H131 variant) (human, UniProt P12318 36-218); experiment: as above
T1 sequence (looked up): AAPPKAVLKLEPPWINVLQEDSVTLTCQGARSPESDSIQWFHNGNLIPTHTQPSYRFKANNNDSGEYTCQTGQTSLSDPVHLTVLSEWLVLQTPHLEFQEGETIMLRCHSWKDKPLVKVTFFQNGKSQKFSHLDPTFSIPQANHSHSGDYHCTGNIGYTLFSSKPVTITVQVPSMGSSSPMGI

[3] = target: T2, FcγRIIA (CD32a-R131 variant) (human, UniProt P12318 36-218); experiment: as above
T2 sequence (looked up): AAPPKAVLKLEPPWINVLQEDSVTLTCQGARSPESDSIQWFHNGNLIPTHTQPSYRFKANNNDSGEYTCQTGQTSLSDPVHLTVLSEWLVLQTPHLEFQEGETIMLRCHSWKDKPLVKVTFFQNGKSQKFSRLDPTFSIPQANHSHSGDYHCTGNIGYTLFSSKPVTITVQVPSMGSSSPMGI

[4] = target: T3, FcγRIIB (CD32b) (human, UniProt P31994 43-217); experiment: SPR sensorgrams, Example 10; response axis without unit, no time axis; set-up and concentrations not given
T3 sequence (looked up): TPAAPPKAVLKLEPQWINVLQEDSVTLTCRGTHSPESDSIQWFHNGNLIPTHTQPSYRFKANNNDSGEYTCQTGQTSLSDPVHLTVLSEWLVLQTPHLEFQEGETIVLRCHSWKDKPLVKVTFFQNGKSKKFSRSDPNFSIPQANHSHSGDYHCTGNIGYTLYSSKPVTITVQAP

[5] = target: T4, FcγRIIIA (CD16a-V158 variant) (human, UniProt P08637 17-208); experiment: as above
T4 sequence (P08637 other isoform, or with tags, fused parts or gaps mutant limits assumed): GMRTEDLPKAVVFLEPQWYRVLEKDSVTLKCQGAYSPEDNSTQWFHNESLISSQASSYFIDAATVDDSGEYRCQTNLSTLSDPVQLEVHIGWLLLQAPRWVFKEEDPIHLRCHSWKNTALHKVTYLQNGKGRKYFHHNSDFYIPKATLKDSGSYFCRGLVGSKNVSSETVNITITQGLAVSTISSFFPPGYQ

[6] = target: T5, FcγRIIIB (CD16b-NA2 variant) (human, UniProt O75015 17-200); experiment: as above
T5 sequence (O75015 other isoform, or with tags, fused parts or gaps mutant limits assumed): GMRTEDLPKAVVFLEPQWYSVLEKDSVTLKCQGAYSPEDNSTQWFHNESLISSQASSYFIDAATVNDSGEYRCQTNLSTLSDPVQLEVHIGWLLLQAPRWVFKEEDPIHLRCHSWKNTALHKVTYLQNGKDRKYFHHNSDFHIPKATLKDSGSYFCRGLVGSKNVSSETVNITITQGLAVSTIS

[7] = target: T5, FcγRIIIB (CD16b-NA2 variant); experiment: SPR, response as % of Rmax (maximum FcγR capacity), Example 10; set-up and concentrations not given
[8] = target: T1, FcγRIIA (CD32a-H131 variant); experiment: SPR sensorgrams, Example 10; response axis without unit, no time axis; set-up and concentrations not given
[9] = target: T2, FcγRIIA (CD32a-R131 variant); experiment: as above
[10] = target: T3, FcγRIIB (CD32b); experiment: as above; remark: listed apart in the source
[11] = target: T4, FcγRIIIA (CD16a-V158 variant); experiment: as above; remark: listed apart in the source
[12] = target: T6, CynoTREM1 (as named in Table 3) (cynomolgus); experiment: SPR (Biacore)
T6 construct: also called cynomolgus TREM-1
T6 chain: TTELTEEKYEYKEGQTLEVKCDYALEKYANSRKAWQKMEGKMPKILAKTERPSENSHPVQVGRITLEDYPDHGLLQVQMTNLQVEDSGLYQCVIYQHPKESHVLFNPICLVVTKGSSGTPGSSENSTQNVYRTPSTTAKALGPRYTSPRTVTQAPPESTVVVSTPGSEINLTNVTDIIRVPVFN

[13] = target: T7, cynomolgus TREM-1 on cells (cynomolgus); experiment: cell-based or functional assay
T7 chain: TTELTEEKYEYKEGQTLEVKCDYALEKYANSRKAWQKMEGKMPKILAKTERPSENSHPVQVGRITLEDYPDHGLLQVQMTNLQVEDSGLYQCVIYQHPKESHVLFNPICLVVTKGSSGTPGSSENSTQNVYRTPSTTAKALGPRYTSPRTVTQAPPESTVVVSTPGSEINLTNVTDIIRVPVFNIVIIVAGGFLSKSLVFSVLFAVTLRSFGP

[14] = target: T7, cynomolgus TREM-1 on cells; experiment: in vivo receptor occupancy against serum concentration, Emax model, cynomolgus monkeys
Procedure: Upon antibody administration, pharmacokinetics, anti-drug antibodies (ADA), TREM-1 receptor occupancy (RO), and ex vivo pharmacodynamics responses were examined at pre-determined time points.
(§1) A direct-effect inhibitory model was used to describe the PD response. […] The observed (open circle) and model-predicted endpoints (solid line) are provided in FIGS. 16A (0.1 mg/kg subcutaneous dosing) and 16B (10 mg/kg subcutaneous dosing).

[15] = target: T7, cynomolgus TREM-1 on cells; experiment: estimate of the 2-compartment PK model with TMDD fitted to cynomolgus PK/RO/PD data (mAb affinity for TREM-1); cyno-model estimate (CV 12%) of the TMDD PK/PD fit, not a direct binding assay
Procedure: as §1

Sequence of FcγRI (CD64) (P12314 16-288 limits assumed): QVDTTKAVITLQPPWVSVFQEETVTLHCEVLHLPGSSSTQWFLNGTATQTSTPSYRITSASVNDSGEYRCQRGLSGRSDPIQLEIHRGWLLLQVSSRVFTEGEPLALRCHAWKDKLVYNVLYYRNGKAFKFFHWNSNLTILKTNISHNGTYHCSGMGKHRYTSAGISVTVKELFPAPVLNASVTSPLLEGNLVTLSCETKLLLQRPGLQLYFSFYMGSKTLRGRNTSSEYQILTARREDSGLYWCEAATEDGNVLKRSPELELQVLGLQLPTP

B1: mAb 0318-IgG1-Aba (antibody)
heavy: not shown
light: DIVLTQSPDSLAVSLGERATINCRASQSVDTFDYSFLHWYQQKPGQPPKLLIYRASNLESGVPDRFSGSGSGTDFTLTISSLQAEDVAVYYCQQSNQDPYTFGQGTKLEIKRTVAAPSVFIFPPSDEQLKSGTASVVCLLNNFYPREAKVQWKVDNALQSGNSQESVTEQDSKDSTYSLSSTLTLSKADYEKHKVYACEVTHQGLSSPVTKSFNRGEC
notes: IgG1 constant region with K214R, C226S, C229S, P238S (EU); also called IgG1-Aba mod; FcAba-1
binding result [1]: binds
binding result [2]: no binding
binding result [3]: no binding
binding result [4]: no binding
binding result [5]: no binding
binding result [6]: no binding

B2: mAb 0318-IgG1.1f (antibody)
heavy: EVQLVESGGGLVQPGGSLKLSCAASGFTFSTYAMHWVRQASGKGLEWVGRIRTKSSNYATYYAASVKGRFTISRDDSKNTAYLQMNSLKTEDTAVYYCTRDMGIRRQFAYWGQGTLVTVSSASTKGPSVFPLAPSSKSTSGGTAALGCLVKDYFPEPVTVSWNSGALTSGVHTFPAVLQSSGLYSLSSVVTVPSSSLGTQTYICNVNHKPSNTKVDKRVEPKSCDKTHTCPPCPAPEAEGAPSVFLFPPKPKDTLMISRTPEVTCVVVDVSHEDPEVKFNWYVDGVEVHNAKTKPREEQYNSTYRVVSVLTVLHQDWLNGKEYKCKVSNKALPSSIEKTISKAKGQPREPQVYTLPPSREEMTKNQVSLTCLVKGFYPSDIAVEWESNGQPENNYKTTPPVLDSDGSFFLYSKLTVDKSRWQQGNVFSCSVMHEALHNHYTQKSLSLSPG
light: DIVLTQSPDSLAVSLGERATINCRASQSVDTFDYSFLHWYQQKPGQPPKLLIYRASNLESGVPDRFSGSGSGTDFTLTISSLQAEDVAVYYCQQSNQDPYTFGQGTKLEIKRTVAAPSVFIFPPSDEQLKSGTASVVCLLNNFYPREAKVQWKVDNALQSGNSQESVTEQDSKDSTYSLSSTLTLSKADYEKHKVYACEVTHQGLSSPVTKSFNRGEC
notes: IgG1 constant region with L234A, L235E, G237A, A330S, P331S (EU)
binding result [1]: binds
binding result [3]: binds

Continued, values first:

binding result [1]: binds
binding result [7]: no binding
binding result [8]: no binding
binding result [9]: no binding
binding result [10]: no binding
binding result [11]: no binding
B3: mAb 0318-IgG4-Aba (antibody)
heavy: not shown
light: DIVLTQSPDSLAVSLGERATINCRASQSVDTFDYSFLHWYQQKPGQPPKLLIYRASNLESGVPDRFSGSGSGTDFTLTISSLQAEDVAVYYCQQSNQDPYTFGQGTKLEIKRTVAAPSVFIFPPSDEQLKSGTASVVCLLNNFYPREAKVQWKVDNALQSGNSQESVTEQDSKDSTYSLSSTLTLSKADYEKHKVYACEVTHQGLSSPVTKSFNRGEC
notes: IgG4 CH1 with IgG1 CH2 and CH3, C226S, C229S, P238S (EU); also called IgG4-Aba mod; FcAba-4

Kd [12]: 3.4 nM
IC50 (nM), estimate of the cynomolgus PK/PD model [13]: 1.9 nM
EC50 [14]: 1.6 nM
binding result [1]: binds
binding result [3]: binds
Kd [15]: 0.64 nM
B4: mAb 0318-IgG1.3f (antibody)
heavy: EVQLVESGGGLVQPGGSLKLSCAASGFTFSTYAMHWVRQASGKGLEWVGRIRTKSSNYATYYAASVKGRFTISRDDSKNTAYLQMNSLKTEDTAVYYCTRDMGIRRQFAYWGQGTLVTVSSASTKGPSVFPLAPSSKSTSGGTAALGCLVKDYFPEPVTVSWNSGALTSGVHTFPAVLQSSGLYSLSSVVTVPSSSLGTQTYICNVNHKPSNTKVDKRVEPKSCDKTHTCPPCPAPEAEGAPSVFLFPPKPKDTLMISRTPEVTCVVVDVSHEDPEVKFNWYVDGVEVHNAKTKPREEQYNSTYRVVSVLTVLHQDWLNGKEYKCKVSNKALPAPIEKTISKAKGQPREPQVYTLPPSREEMTKNQVSLTCLVKGFYPSDIAVEWESNGQPENNYKTTPPVLDSDGSFFLYSKLTVDKSRWQQGNVFSCSVMHEALHNHYTQKSLSLSPGK
light: DIVLTQSPDSLAVSLGERATINCRASQSVDTFDYSFLHWYQQKPGQPPKLLIYRASNLESGVPDRFSGSGSGTDFTLTISSLQAEDVAVYYCQQSNQDPYTFGQGTKLEIKRTVAAPSVFIFPPSDEQLKSGTASVVCLLNNFYPREAKVQWKVDNALQSGNSQESVTEQDSKDSTYSLSSTLTLSKADYEKHKVYACEVTHQGLSSPVTKSFNRGEC
notes: IgG1 constant region with L234A, L235E, G237A (EU)
